Assay: label from the status in PepcDB records
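Note: failed if final PepcDB status was selected cloned or expressed and not failed if soluble or beyond.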

Row | Sequence | protein production
1 | MKWIMKLRWAILAFWLAAAVVLMFIAPPMADLVREKGELKLPDGYPSSLATEMQKKHNPDDKGSAYIAVYTADHKLTGTELNDIQKSLDSIEKDKDELHVTNVLSSFNQPELKDKFLAKDGKTMVASLTVDDTDASVKSIRNALDKKMDVKGVDTYLTGNKLIQEDVVQGSEDGLHKTEGITVVFILVVLFLVFRSAVAPFIPLITVGISYLVAQSTVAFLIDIFNFPVSTYTQIFMVCIMFGIGTDYCILLMSRFKEEMGAGLNPREAVHATYRTAGKTVIYSGVAVLVAFTSLYFVQFDLYRSAVAVGVGIVVLLAALYTLVPFFMSTLGTHLFWPLNKNISHKENKIWGAAGKFTFARPWIALLIVAAITLPPILLHTGTESFNSLDEISDKYPSKKGFEIVSDSFGAGQVAPTQIFIENDDNMRTTDYIAQIEKISDDLSHLKGIDMVMSASRPAGKRVDDIYIKNQAGQVNDGVGQATDGVGEVKKGLDSASSELKKSEPALDKAVAGVGDLQKGTVATQEGINQLQTALAQIQKGIESGATGAGDLKQGVAEAKSQLATLQNGEAQIQAGYAEIQKNLQNVADQLKGFENPSSQAIDTSKLEEQFKKIGASFQAFAAAHPEVRNDPRFQKLAADIQGLETAGNELKTSAGQQMAALQAKMKELNQGIQQLATAMNQLNEQSKQISDGLSAFSTGLGQIETGLDQLEKGLNQAAVGQGQVVSKMPEVSNALTQIAAGQGALKDGFAGISGQMGQLTDGLTSGADGLGKVESGLNTANGLIDDWSKVPYASSGIYVPDALLKNADFQKVLDQYISSDGKLATINVILTKNPYSNEAMDSIDDINDQLAASMKGTKLENAKIGIGGMTSANYDTRDMSTADYHLVLVIVLASVFVTLVIVLRSLVMPIYLIASLVLTYFAALGFAEIIFMRILGYSGLTWATPFFGFVVLVALGIDYSIFLMSRFNEYNGLSVRDRMIKAMKNMGGVIFSAVIILGGTFAAMMPAGVLSLLEIATVVLIGLVLYAVVILPLFVPVMVKLFGRGNWWPFITRKGDHQENVPPKK | failed
2 | MYIMNIFITDFYHRNDLLDKAEAMIANHWPAFMMGTSVDDSYWERLYDVPFSHYQFMAVLKTQTEEKVIGVINSIALPWQTNSLNDLPDEGWDRVFQLGMEAEEQQLPCHLISALSVTIDHHYRGKGIAQRLINTLKEHAKKQGYLGVAVPVRPTLKHCYPLHSFAEYCQWKNDNDEPFDPWIRTHWRL | failed
3 | MSGSLRDSAIDHFNKTISLMQKRQNKEALEELEKAEEAAKQAKANDILIHTVNLRGQLMLTLGALDEVLRICGFASNFFADILLKDPENEFFQQSFQMNLNNLGTTGNFYHNTGRFPQAKKAYETGLGITLKLLQSSPQDDFLQNYTGTTLNNLGNLLSDMGRIEDAKNRYEKALEMREKLLEKDPENVAYQSYVGGTLNNLGNLLKNMGRIEDAKNRYEKALEMREKLLEKDPENVAYQSYVAMTLNNLGNLLKNMGRIEDAKNKYEKALEMREKLLEKDPENVAYQSDVAMTLNNLGTLLSDLGKIEDAKNRYEKALEIYEKLLENDPENVAYQSYVAMALNNLGNLLKNMGRIEDAKNRYEKALEMREKLLENDPENVAYQSDVAMTLNNLGTLLSDMGRIEDAKNRYEKALEIYEKLLEKDPENIAYQSDIGGTLNNLGTLLSDMGRIEDAKNRYEKALEIYEKLLEKDPENIAYQSEVGGTLNNLGTLLSDMGRIEDAKNRYEKALEIYEKLLEKDPENIAYQSEVGTMLNNLGNLLSDMGRIEDAKNRYKKALEIYEKLLEKDPENIAYQSYVGGTLNNLGNLLSDMGRIEDAKNRYKKALEIYEKLLEKDPENVAYQSYVGTMLNNLGTLLSDMGRIEDAKNRYKKALEIYEKLLEKDPENVAYQSYVGGTLNNLGNLLSDMGRIEDAKNRYKKALGIYEKLLEKDPGNLAYHSEVNTIQCKVKKVKGSGRC | failed
4 | MKNRIWSAAMAAGLLVAAATSAQAEPVMQGRDAYGDWQSDRPGTVRLIRPQDLVKPGATRSVASFARVVPRPSDASPQVPPGFKIELFAEGLRAPRIVRVAPNGDVFVAETRAGTIRVLRAGEGGKVAANEVFASGLRQPFGVAFFPNGDNPQWVYVANTDSVVRFPYQAGDLKARSKAEKIVASLPHDGGHSTRDIVFTPDNKRMLVSVGSLSNVAEGMGTPPGGMDAWSKTQPLGAAWASETERATVLAFTPDGKERKIYATGIRNCVGLAIQSQTGLPWCSTNERDGLGDDLVPDYVTSVKEGAFYGWPWFYIGGNEDPRHAGARPDLKDRVTIPDVLIQPHSASLGMTFYEGTQFPSDYQGDAFAAEHGSWNRSKRTGYKVIRIRMKDGKPTGEYEDFVTGFVLSDTEVWGRPVGVAVAKDGALLISEDGNGTIWRVSHP | failed
5 | MTRNRRRIAFAAILAMATTAHAQQGQVLTTQDEIGGVYEGTFRGGLQHGTGTYRLPNGYEYSGEWVDGEIRGRGVARFPNGSVYEGSFAQGKPEGMGKITFSDGGTYEGEWSNGVINGQGVAVYANGVRYEGGFRDARHHGKGVMQSPGGYVYEGDWADGQKEGLGKITYPDGAVYEGGIVAGQRHGEGTLTLPDGLVYVGFWADGQINGKGTLTQANGDVYEGDLIAGRREGKGKVTYANGDVYQGDFTDDRREGQGIFTGTDGYSYAGSWVAGQIEGQGRVTYPDGSVYEGNFRADLADGQGKITYPDGSSYEGEWVAGVIEGTGTAIYANGIVYKGTFKNAKNHGQGVMTYADGYRYEGEWQDGVRHGQGKATYPDGSVYTGQYVNGQREGDGEIVMADGFRYKGQWQSGKISGIGVATYANGDIYEGHFRNGKRQGEGTMKYASGQEEKGNWDNGALTKGAAASDG | failed
6 | MSSENDFVEFSSMFERIIQGRGDGLSRFLPVIVALAAREDDDDQGSTDQTTRRGDPLSPRFVMIGSRSGLDDFFSDGGKQGRSPALKSEVENMPRVVIGEDKEKYGGSCAICLDEWSKGDVAAEMPCKHKFHSKCVEEWLGRHATCPMCRYEMPVEEVEEEKKIGIWIGFSINAGDRRN | failed
7 | MSLEAGAGAPLARYAAWRRAGDFIFLSGIIPVNPLTGTIVNGFQDVPEPVRELLGATGEFSTDAKQGPILAQSWYVLESIRRTVASAGGQMSDVIKLVQYFRNLDHFPYYSRVRKLFYPDQPPVSTVVQVSEMLPDATVLIEVEATVWLPPSFNSEAEGHHHHHH | not failed
8 | MSFIRTFYGDIAPEQLGFTYSHEHIVCVPAYWQERDADDLLLDDKEKSQLDVQDFADLGGKTIVDATAVDYGRRVLDVAQISKETGIQIVGTAGFNKSFLWDGKIKPELKPIIGDFETYYEWIENTSIDKLTEFVVNEVENGLEGTPYKAGQVKFGTGYNMITPLEEKTIRAVARAHHETKAPIHSHTEAGTMALEQIEILKQENIPLEYLSIGHMDRNLDPYYHKQVAKTGAFMSFDGIAKIKYAPESARIAAILYLVSEGFEDQILVSGDTARKTYYKHYGHGPGLEYIAKKWVPRFIDEANEKGFDGEKLVKKFFVDNPARCFTFKK | failed
9 | MKNPQSKADDILQCARTLIIRGGYNSFSYADISQVVGIRNASIHHHFPSKSDLVCKLVSQYRQEAEAGIAELEKNISDPLEQLRAYIGYWEGCIADATHPFCVCALLASEIPVLPETVVLEVRAHFRSLSDWLTAVLERGIAQGRLVLTGTARANAEIFMATVHGAMLSARAHGDAATFGAITRPMLERITA | not failed
10 | MDFKTVMQELEALGKERTKKIYISNGAHEPVFGVATGAMKPIAKKIKLNQELAEELYATGNYDAMYFAGIIADPKAMSESDFDRWIDGAYFYMLSDYVVAVTLSESNIAQDVADKWIASGDELKMSAGWSCYCWLLGNRKDNAFSESKISDMLEMVKDTIHHSPERTKSAMNNFLNTVAISYVPLHEKAVEIAKEVGIVEVKRDNKKSSLLNASESIQKELDRGRLGFKRKYVRC | not failed
11 | MPGAEQRWPARAALLLVLIAAAGLARGQETPSGPPPRVAMVVGNSAYQNVPALPNPAGDAELVAEKLWESGFEVIETVDADRETMLADLATFRSRLREGSEALFFYAGHGVQIGGRNYLLPVSVAPSSVEDLKAQAIDAQLFLDVMAQSGARLTLVLLDACRNNPFLDIPSDGAEAIATRALSIGASRAAVERGLRDLAAASRGGLAEMSAGRGEALISFATAPGQVAFDGRGRHSPYTSALAGSIDEPGLELVDLFRRVRGAVREATGGQQIAWTASTLESRFYFKPPADDLRSATTGMSTGSDTLGALPPRRVVDRTFWRAIRDTDRLDAFTAYVRTMPDGAFVAEAKEKIRSLGGDPEAIPVSDLSLPERPRGFVLADPAAQADLAATLDRAPASVPIGTGAARIGAAAGRAGWVHVAAAPRLGAVSAGGTRLEAGSVRWMEADQPLDYLPGIGSNGGLDSLRAEALREGGTTEPLEAAVETYVDACDMLAGNPYDSQRVTAGTRQFILDRNHDAAIAVCEIAVARHPEVVRFWAELARSYRAAGRYEEALHWQQKAVDAGYASAMVYLGQMFLDGQAVPQDFDRARELFEAADARGETAALTALAWIHRAGVGVPEDPARALDFYRQGAARGNDWAMTNIGEFYQKGLSVARDPAEAVRWYTAAAKSGELTAQTRLARMYQTGDGIAVDEAQARFWFETAAGRGVPNALTRLGLMYEQGQGVDRDLEAAARLYGRAAAEGDAEAWLRLGRLEASDAPLFDRPERALPLLEKALAAQVPGAARELGRLYETGRGVTKDLARARALYVQEAGANPWAARDAGRAFASDEGAPADPAQAARWYRAAAEGGVPWAALDLGRLYETGRGVPQDRTEALVLYAAAARPGGDARAADAARRAAAGYSAEETIRAAQLLLGRLGAEVGAPDGRIGPATRDALARVFAAQGRAAPGTRIDFDLLAELSAMDEERLP | failed
12 | MVEIIPVSTTLELRAADESHVPALHQLVLKNKAWLQQSLDWPQYVTSQEETRKHVQGNILLHQRGYAKMYLIFCQNEMAGVLSFNAIEPINKAAYIGYWLDESFQGQGIMSQSLQALMTHYARRGDIRRFVIKCRVDNQASNAVARRNHFTLEGCMKQAEYLNGDYHDVNMYARIIDAD | not failed
13 | MLEINKIHQMNCFDFLDQVENKSVQLAVIDPPYNLSKADWDSFDSHNEFLPFTYRWIDKVLDKLDKDGSLYIFNTPFNCAFICQYLVSKGMIFQNWITWDKRDGMGSAKRGFSTGQETILFFSKSKNHTFNYDEVRVPYESTDRIKHASEKGILKNGKRWFPNPNGRLCGEVWHFSSQRHKEKVNGKTVKLTHITPKPRDLIERIIRASSNPNDLVLDCFMGSGTTAIVAKKLGRNFIGCDMNAEYVNQANFVLNQLEIN | not failed
14 | MLALKSSELEGIATSLTAVAGALHESNTDRLQSWQQLETMTSASSLIQGFIKLVDYNRPTVNIVEQMHKTASTLFNTADFLRTLEGYVDVLEKQADKSITLTVMLRYIASLSSLLDLMCAREINALCTAITPEPLKHLGDFGTLPASAIHEFHLVNAPPEIRALAEAHPDMQILEAGDGSLVASFGDIDRATTVTTIVAGVGSSNPEGWNTYVDRARTVSASTGSATVLWLGYQAPASIPAAVSGAAANRAAADLQRFQAALQSRNPHQRKVVMGYSYGSTVVGKAASSGELSADALVLVGSPGAGVSHSSQLGAPVYAVTGSADPIGFAGTQYDGIHGTDPTAALFGATVWDSPSTHSGYWNDQEFLGNVAEVVRGK | failed
15 | MKIYFEAYGCTLNQGETALYVNKLLNEGNTLVSNPKEADLSIIGTCAVIKKTEDHMMARIQNLSRFGKVEVIGCLAPVKGKTMVEDNVSVIEKDRFRSFQEVIDEVSPVNAEIVSGIPINQGCTGKCNFCVSHIARGKLVSRKPEKIAGQIKILLQRGIKEIKITSLDTAAYGKDIGLRLPHLIRTITEIGDDFRLRVGMMEPKNTLEIVDDLISAYRSEKVFKFLHLPVQSGDDYVLEVMNREYTVSDFIRITGKFREAFPDSTLSTDLIIGYYAENDDSFEKTVQLIEKIRPEIINVTKFSPRELTADFEKRPKPTNILKEQDRMIADMHKEILQEKFSNLIGKTEFVLITENGKGRSMIGRDHAYRPIVIMDKTRKFEFHQVEITGFENTSLIGRIIDLEHHHHHH | failed
16 | MTHTVIVPGVGGSEQHHWQSWLQRQLSSCSRVEQNDWNLPVLSDWVSHLISHVQQLEQPVQIVAHSFGCLTTLAALEQHPQLINQVKHITLVAPANPERFGEAGFARDSQTDYRAYFHQLKPSIKTQLIISENDPWLDFEEALQLAKSWQVRATNLGKVGHINVASGFGPFPEIFDYMLP | failed
